Laboratory results reported in US9828595B2, “Thermostable asparaginase variants and polynucleotides encoding same” (Novozymes A/S, priority 2012, dated 2017).
Positions count from the first letter of the chain named. Names may count otherwise.

Columns and labels:
[1] = molecular target: T1, Aspergillus niger asparaginase, wild type, SEQ ID NO: 10 (Aspergillus niger, UniProt A2QBE5); assay: Effect of xylitol on asparaginase activity, A. niger wt; format: biochemical; conditions: buffer 70.8 g + 29.2 g xylitol, pH 6, 37° C.; activity in buffer without xylitol = 100%
T1 construct: enzyme preparation tested in Nessler assay
T1 sequence (A2QBE5 18-378): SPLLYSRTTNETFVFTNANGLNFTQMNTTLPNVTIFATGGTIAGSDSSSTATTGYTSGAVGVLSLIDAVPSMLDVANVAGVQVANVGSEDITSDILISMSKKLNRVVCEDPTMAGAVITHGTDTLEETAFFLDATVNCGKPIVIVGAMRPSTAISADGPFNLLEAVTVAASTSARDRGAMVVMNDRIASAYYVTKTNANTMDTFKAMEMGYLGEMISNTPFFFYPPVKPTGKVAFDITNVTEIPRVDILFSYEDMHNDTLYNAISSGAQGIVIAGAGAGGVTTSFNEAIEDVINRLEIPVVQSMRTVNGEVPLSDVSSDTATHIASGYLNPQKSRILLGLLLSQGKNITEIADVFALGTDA
Protocol: (§1) Example 13: Asparaginase Activity Assay—Used in Example 14
(§2) Asparaginase hydrolyses asparagine to aspartic acid and ammonium. Produced ammonium is determined using Nessler's reagent.
(§3) Activity is determined relative to a standard of known activity in ASNU or to a relevant control sample. Activity as determined according to this assay is referred to as nASNU.
(§4) Mix buffer and asparagine and let it equilibrate at 37° C. for 10-15 min. Add enzyme standard or sample and incubate for 10 min at 37° C. Add TCA to stop the reaction.
(§5) Ammonium Determination (Nessler Assay)
(§6) Milli-Q water, sample and Nessler's reagent is added to the microtiter plate. Shake for 10 sec and then leave to incubate for 10 min before shaking again and reading at 440 nm.
(§7) Example 14: Testing the Effect of NaCl and Xylitol on Enzyme Activity
(§8) To test the effect of NaCl or xylitol on asparaginase activity, the compounds were added directly to the buffer and asparaginase activity measured using the standard assay described in Example 13. NaCl was tested in two concentrations and xylitol in one.
(§9) Buffer: 20 mM citric acid buffer, pH 6, 0.001% triton X100:
(§10) Xylitol: 70.8 g buffer+29.2 g xylitol
(§11) The measured activity in the presence of either NaCl or xylitol was compared to the activity in buffer without NaCl and xylitol (set as 100%).

[2] = molecular target: T2, Aspergillus oryzae asparaginase, wild type (Wt enzyme), SEQ ID NO: 2 (Aspergillus oryzae, UniProt Q2URI4); assay: Effect of xylitol on asparaginase activity, Wt enzyme; format: biochemical; conditions: buffer 70.8 g + 29.2 g xylitol, pH 6, 37° C.; activity in buffer without xylitol = 100%
T2 construct: Nessler assay with xylitol or NaCl
Protocol: as §1, §2, §3, §4, §5, §6, §7, §8, §9, §10, §11

[3] = substrate: NC(=O)C[C@H](N)C(=O)O; assay: Km and kcat determination, WT; format: biochemical, Aspergillus oryzae; conditions: other: L-asparagine 0.22-26.6 mM, pH 5.0, 50° C., 10 min
Protocol: (§12) Example 15: Km and Kcat Determination
(§13) Purified enzyme was diluted with 20 mM sodium acetate buffer pH 5.5 to a solution of a specified activity around 2 rASNU/ml. Ten microliters of enzyme solution was added to 100 microL of preincubated substrate solution containing L-asparagine in different concentration (0.22-26.6 mM) constructed by dissolving L-asparagine monohydrate in 100 mM sodium acetate buffer pH 5.0 including 0.02% TritonX-100. After 10 min incubation at 50° C., the amount of generated ammonia in the reaction mixture was measured by using Ammonia Test Kit (Wako Pure Chemicals, Japan) following the package insert protocol. The Km and Vmax were determined from Michaelis-Menten equation, and kcat was calculated using Vmax.

[4] = substrate: NC(=O)C[C@H](N)C(=O)O; assay: Km and kcat determination, JN161; format: biochemical, Aspergillus oryzae; conditions: other: L-asparagine 0.22-26.6 mM, pH 5.0, 50° C., 10 min
Protocol: as §12, §13

[5] = substrate: NC(=O)C[C@H](N)C(=O)O; assay: Km and kcat determination, JN167; format: biochemical, Aspergillus oryzae; conditions: other: L-asparagine 0.22-26.6 mM, pH 5.0, 50° C., 10 min
Protocol: as §12, §13

[6] = substrate: NC(=O)C[C@H](N)C(=O)O; assay: Km and kcat determination, JN178; format: biochemical, Aspergillus oryzae; conditions: other: L-asparagine 0.22-26.6 mM, pH 5.0, 50° C., 10 min
Protocol: as §12, §13

[7] = substrate: NC(=O)C[C@H](N)C(=O)O; assay: Km and kcat determination, JN180; format: biochemical, Aspergillus oryzae; conditions: other: L-asparagine 0.22-26.6 mM, pH 5.0, 50° C., 10 min
Protocol: as §12, §13

[8] = substrate: NC(=O)C[C@H](N)C(=O)O; assay: Km and kcat determination, JN181; format: biochemical, Aspergillus oryzae; conditions: other: L-asparagine 0.22-26.6 mM, pH 5.0, 50° C., 10 min
Protocol: as §12, §13

[9] = substrate: NC(=O)C[C@H](N)C(=O)O; assay: Km and kcat determination, JN182; format: biochemical, Aspergillus oryzae; conditions: other: L-asparagine 0.22-26.6 mM, pH 5.0, 50° C., 10 min
Protocol: as §12, §13

[10] = substrate: NC(=O)C[C@H](N)C(=O)O; assay: Km and kcat determination, JN183; format: biochemical, Aspergillus oryzae; conditions: other: L-asparagine 0.22-26.6 mM, pH 5.0, 50° C., 10 min
Protocol: as §12, §13

**Q.** For `OC[C@@H](O)[C@H](O)[C@@H](O)CO` [xylitol], which “% activity xylitol” value [1] is on record?
**A.** The value was 176%.

**Q.** And the “% activity xylitol” value [2]?
**A.** The value was 158%.

B1: Aspergillus oryzae asparaginase, wild type (WT), SEQ ID NO: 2 (Aspergillus oryzae RIB40) (protein)
chain: ATDSNVTYVFTNPNGLNFTQMNTTLPNVTIFATGGTIAGSSADNTATTGYKAGAVGIQTLIDAVPEMLNVANVAGVQVTNVGSPDITSDILLRLSKQINEVVCNDPTMAGAVVTHGTDTLEESAFFLDATVNCRKPVVIVGAMRPSTAISADGPLNLLQSVTVAASPKARDRGALIVMNDRIVSAFYASKTNANTVDTFKAIEMGNLGEVVSNKPYFFYPPVKPTGKTEVDIRNITSIPRVDILYSYEDMHNDTLYSAIDNGAKGIVIAGSGSGSVSTPFSAAMEDITTKHNIPIVASTRTGNGEVPSSAESSQIASGYLNPAKSRVLLGLLLAQGKSIEEMRAVFERIGVA
notes: purified
**Q.** How did the Km [3] turn out when B1 was run?
**A.** Its Km is 950 µM.

**Q.** What about the kcat [3] of the same molecule?
**A.** Its kcat is 121 s⁻¹.

B2: Aspergillus oryzae asparaginase variant JN161: JN070 (N70K S307A A323R T327V A349Q S351A V353I, SEQ ID NO: 4) with K122A P241E K290V S299A S338W (Aspergillus … (protein)
chain: ATDSNVTYVFTNPNGLNFTQMNTTLPNVTIFATGGTIAGSSADKTATTGYKAGAVGIQTLIDAVPEMLNVANVAGVQVTNVGSPDITSDILLRLSAQINEVVCNDPTMAGAVVTHGTDTLEESAFFLDATVNCRKPVVIVGAMRPSTAISADGPLNLLQSVTVAASPKARDRGALIVMNDRIVSAFYASKTNANTVDTFKAIEMGNLGEVVSNKEYFFYPPVKPTGKTEVDIRNITSIPRVDILYSYEDMHNDTLYSAIDNGAVGIVIAGSGAGSVSTPFAAAMEDITTKHNIPIVRSTRVGNGEVPSSAEWSQIASGYLNPQKARILLGLLLAQGKSIEEMRAVFERIGVA
notes: purified; expressed in Aspergillus
**Q.** Which Km [4] does the source give for B2 here?
**A.** The Km was 690 µM.

**Q.** What about the kcat [4] of the same molecule?
**A.** The kcat was 172 s⁻¹.

B3: Aspergillus oryzae asparaginase variant JN167: JN070 (N70K S307A A323R T327V A349Q S351A V353I, SEQ ID NO: 4) with K122A P241E S299A S334P (Aspergillus oryzae … (protein)
chain: B2 chain with V264K, S308P, W312S
notes: as for B2
**Q.** Which results are given for B3?
**A.** Km [5]: 670 µM; kcat [5]: 127 s⁻¹

B4: Aspergillus oryzae asparaginase variant JN178: JN070 (N70K S307A A323R T327V A349Q S351A V353I, SEQ ID NO: 4) with K122A K240R P241E S299A S334P (Aspergillus … (protein)
chain: B2 chain with K214R, V264K, S308P, W312S
notes: as for B2
**Q.** For B4, which Km [6] is on record?
**A.** Its Km is 880 µM.

**Q.** What about the kcat [6] of the same molecule?
**A.** The kcat was 127 s⁻¹.

B5: Aspergillus oryzae asparaginase variant JN180: JN070 (N70K S307A A323R T327V A349Q S351A V353I, SEQ ID NO: 4) with K122A K240R P241E S299A S334P E337S … (protein)
chain: B2 chain with K214R, V264K, S308P, E311S, W312S
notes: as for B2
**Q.** Which results are given for B5?
**A.** Km [7]: 830 µM; kcat [7]: 185 s⁻¹

B6: Aspergillus oryzae asparaginase variant JN181: JN070 (N70K S307A A323R T327V A349Q S351A V353I, SEQ ID NO: 4) with K122A K240R P241E K253R S299A S334P E337S … (protein)
chain: B2 chain with K214R, K227R, V264K, S308P, E311S, W312S
notes: as for B2
**Q.** B6 was tested. Which Km [8] did it give?
**A.** Its Km is 580 µM.

**Q.** What about the kcat [8] of the same molecule?
**A.** Its kcat is 138 s⁻¹.

B7: Aspergillus oryzae asparaginase variant JN182: JN070 (N70K S307A A323R T327V A349Q S351A V353I, SEQ ID NO: 4) with K122A P241E S299A S334P E337S (Aspergillus … (protein)
chain: B2 chain with V264K, S308P, E311S, W312S
notes: as for B2
**Q.** With B7 as the molecule, how does the Km [9] read?
**A.** Its Km is 910 µM.

**Q.** And the kcat [9]?
**A.** The kcat was 186 s⁻¹.

B8: Aspergillus oryzae asparaginase variant JN183: JN070 (N70K S307A A323R T327V A349Q S351A V353I, SEQ ID NO: 4) with K122A P241E S299A S334P S338W (Aspergillus … (protein)
chain: B2 chain with V264K, S308P
notes: as for B2
**Q.** With B8 as the molecule, how does the Km [10] read?
**A.** The Km was 910 µM.

**Q.** What about the kcat [10] of the same molecule?
**A.** The kcat was 189 s⁻¹.
